Measurements: patent US7541183B2, “Growth and differentiation of adult muscle stem cells with activators or inhibitors of Wnt signaling” (Ottawa Health Research Institute, priority 2003, dated 2009)

Columns and labels:
CD45+:Sca1+ muscle cells = type: cell-based
Method: Mononuclear cells were washed twice with DMEM supplemented with 5% FBS, and suspended at a concentration of 2−3×10^6 cells/ml. […] Primary antibodies were diluted at 1:200, and Streptavidin Tri-Color Conjugate was diluted 1:1000. After two washes with DMEM at 4° C., cells were separated on a MoFlo cytometer (DakoCytomation), equipped with 3 lasers. Sort gates were strictly defined based on isotype control stained cells and single antibody staining. Dead cells and debris were excluded by gating on forward and side scatter profiles. Sorting was performed using single cell mode to achieve the highest possible purity. The purity of sorted populations was routinely >98%.
Primary myoblasts were isolated from hind limb muscle of 3-week old Balb/c mice, and maintained in HAM's F-10 medium (Invitrogen) supplemented with 20% FBS, and 2.5 ng/ml bFGF (Invitrogen).
For co-culture experiments, primary myoblasts or Wnt-expressing cells were mixed with purified CD45^+:Sca1^+ cells at a ratio of 1:1, and seeded on Collagen-coated 2-well Permanox Chamber Slides (Lab-Tek). The density was 2×10^4 cells/chamber for co-culture in growth conditions, and 4×10^4 cells/chamber for differentiation experiments. […] Fluoroscein or Rhodamine conjugated antibodies (Chemicon) were used for secondary detection. Cover slides were mounted and analyzed using a Zeiss Axioscop fluorescent microscope.

[1] = test system: Myf5nLacZ+ satellite cells; test: Impact of cardiotoxin injection on myogenic progenitors in injured muscle; type: in vivo, Myf5nLacZ mice; settings: 18 hours post-ctx injection
Method: For direct analysis of sorted cell populations, cells were washed and suspended in phosphate-buffered saline (PBS), and cytospun onto silanized slides (DAKO). X-gal staining was performed as described previously (Kablar, 1997, Development 124, 4729-4738).
5 to 8 week-old mice were anaesthetised with Halothane gas. 25 μl of 10 μM cardiotoxin (Latoxan) was injected directly into the TA muscle, using a 29 G 1/2 insulin syringe. For cell proliferation assays, 0.3 mg/kg of 5-bromo-deoxyuridine (BrdU, Sigma) was injected intraperitoneally 90 minutes prior to sacrificing animals. Cells that had incorporated BrdU were detected by flow cytometry using a FITC conjugated anti-BrdU antibody (ED Pharmingen). For sFRP experiments, 100 ng of recombinant sFRP 2 and 3 (R&D Systems) were injected into regenerating TA muscle. Control animals received injections of equal volumes of PBS. For analysis of total TA cell populations, 1×10^4 mononuclear cells were plated on collagen-coated chamber slides overnight and then stained with anti-Desmin antibody (DAKO) at 1:200. Donkey anti-mouse FITC (Chemicon) at 1:500 was used for secondary detection.

## Shh: recombinant Sonic Hedgehog (Shh-N, R&D Systems)
CD45+:Sca1+ muscle cells; 100 ng/ml Shh
  increase in CD45+:Sca1+ cell survival: 3-4 fold
CD45+:Sca1+ muscle cells; recombinant Shh at 10 or 100 ng/ml, cells alone or in co-culture with myoblasts
  myogenic differentiation efficiency of CD45+:Sca1+ cells: did not influence

## cardiotoxin
[1]
  reduction in the number of Myf5nLacZ+ cells relative to uninjured muscle: ~30 fold
[1]; listed as ctx
  reduction in the number of Myf5nLacZ+ cells relative to uninjured muscle: approximately 30 fold
[1]; uninjured muscle 4.1×10^4±1.6×10^4
  number of Myf5nLacZ+ cells: 1.18×10^3±1×10^3 cells/g tissue
